Numbered stars: 1 amine (or outer) side, 2 acyl side, 3 side chain; on linkers, the order of the positions; unused ones are H or OH. Bridge positions count the residues as written; N and C are the ends. Side chains are listed from the residue outwards. Ends that are not written are not given here. * marks the point of attachment. C20 diacid = O=C(O)CCCCCCCCCCCCCCCCCCC(=O)*; γGlu = O=C(O)[C@H](CCC(=O)[*:2])N[*:1]
B1: N^ε1-[(4S)-4-carboxy-4-(19-carboxynonadecanoylamino)butanoyl]-[His14,Arg17,Pro21,Pro27,Arg34]-h-amylin (peptide)
peptide: K([γGlu-C20 diacid])CNTATCATQRLAHFLRHSSPNFGAIPSSTNVGRNTY-NH2
modifications: disulfide 2-7; N-terminus assumed
SMILES: CC[C@H](C)[C@H](NC(=O)[C@H](C)NC(=O)CNC(=O)[C@H](Cc1ccccc1)NC(=O)[C@H](CC(N)=O)NC(=O)[C@@H]1CCCN1C(=O)[C@H](CO)NC(=O)[C@H](CO)NC(=O)[C@H](Cc1c[nH]cn1)NC(=O)[C@H](CCCNC(=N)N)NC(=O)[C@H](CC(C)C)NC(=O)[C@H](Cc1ccccc1)NC(=O)[C@H](Cc1c[nH]cn1)NC(=O)[C@H](C)NC(=O)[C@H](CC(C)C)NC(=O)[C@H](CCCNC(=N)N)NC(=O)[C@H](CCC(N)=O)NC(=O)[C@@H](NC(=O)[C@H](C)NC(=O)[C@@H]1CSSC[C@H](NC(=O)[C@@H](N)CCCCNC(=O)CC[C@H](NC(=O)CCCCCCCCCCCCCCCCCCC(=O)O)C(=O)O)C(=O)N[C@@H](CC(N)=O)C(=O)N[C@@H]([C@@H](C)O)C(=O)N[C@@H](C)C(=O)N[C@@H]([C@@H](C)O)C(=O)N1)[C@@H](C)O)C(=O)N1CCC[C@H]1C(=O)N[C@@H](CO)C(=O)N[C@@H](CO)C(=O)N[C@H](C(=O)N[C@@H](CC(N)=O)C(=O)N[C@H](C(=O)NCC(=O)N[C@@H](CCCNC(=N)N)C(=O)N[C@@H](CC(N)=O)C(=O)N[C@H](C(=O)N[C@@H](Cc1ccc(O)cc1)C(N)=O)[C@@H](C)O)C(C)C)[C@@H](C)O
notes: also called compound 85
B2: N^ε1-[(4S)-4-carboxy-4-(19-carboxynonadecanoylamino)butanoyl]-[His14,Arg17,Pro21,Pro27,Pro31]-h-amylin (peptide)
peptide: K([γGlu-C20 diacid])CNTATCATQRLAHFLRHSSPNFGAIPSSTPVGSNTY-NH2
modifications: disulfide 2-7; N-terminus assumed
SMILES: CC[C@H](C)[C@H](NC(=O)[C@H](C)NC(=O)CNC(=O)[C@H](Cc1ccccc1)NC(=O)[C@H](CC(N)=O)NC(=O)[C@@H]1CCCN1C(=O)[C@H](CO)NC(=O)[C@H](CO)NC(=O)[C@H](Cc1c[nH]cn1)NC(=O)[C@H](CCCNC(=N)N)NC(=O)[C@H](CC(C)C)NC(=O)[C@H](Cc1ccccc1)NC(=O)[C@H](Cc1c[nH]cn1)NC(=O)[C@H](C)NC(=O)[C@H](CC(C)C)NC(=O)[C@H](CCCNC(=N)N)NC(=O)[C@H](CCC(N)=O)NC(=O)[C@@H](NC(=O)[C@H](C)NC(=O)[C@@H]1CSSC[C@H](NC(=O)[C@@H](N)CCCCNC(=O)CC[C@H](NC(=O)CCCCCCCCCCCCCCCCCCC(=O)O)C(=O)O)C(=O)N[C@@H](CC(N)=O)C(=O)N[C@@H]([C@@H](C)O)C(=O)N[C@@H](C)C(=O)N[C@@H]([C@@H](C)O)C(=O)N1)[C@@H](C)O)C(=O)N1CCC[C@H]1C(=O)N[C@@H](CO)C(=O)N[C@@H](CO)C(=O)N[C@H](C(=O)N1CCC[C@H]1C(=O)N[C@H](C(=O)NCC(=O)N[C@@H](CO)C(=O)N[C@@H](CC(N)=O)C(=O)N[C@H](C(=O)N[C@@H](Cc1ccc(O)cc1)C(N)=O)[C@@H](C)O)C(C)C)[C@@H](C)O
notes: also called compound 62
B3: N^ε1-[(4S)-4-carboxy-4-[[(4S)-4-carboxy-4-(19-carboxynonadecanoylamino)butanoyl]amino]butanoyl]-[Arg17,Pro21,Pro27,His34]-h-amylin (peptide)
peptide: K([γGlu-γGlu-C20 diacid])CNTATCATQRLANFLRHSSPNFGAIPSSTNVGHNTY-NH2
modifications: disulfide 2-7; N-terminus assumed
SMILES: CC[C@H](C)[C@H](NC(=O)[C@H](C)NC(=O)CNC(=O)[C@H](Cc1ccccc1)NC(=O)[C@H](CC(N)=O)NC(=O)[C@@H]1CCCN1C(=O)[C@H](CO)NC(=O)[C@H](CO)NC(=O)[C@H](Cc1c[nH]cn1)NC(=O)[C@H](CCCNC(=N)N)NC(=O)[C@H](CC(C)C)NC(=O)[C@H](Cc1ccccc1)NC(=O)[C@H](CC(N)=O)NC(=O)[C@H](C)NC(=O)[C@H](CC(C)C)NC(=O)[C@H](CCCNC(=N)N)NC(=O)[C@H](CCC(N)=O)NC(=O)[C@@H](NC(=O)[C@H](C)NC(=O)[C@@H]1CSSC[C@H](NC(=O)[C@@H](N)CCCCNC(=O)CC[C@H](NC(=O)CC[C@H](NC(=O)CCCCCCCCCCCCCCCCCCC(=O)O)C(=O)O)C(=O)O)C(=O)N[C@@H](CC(N)=O)C(=O)N[C@@H]([C@@H](C)O)C(=O)N[C@@H](C)C(=O)N[C@@H]([C@@H](C)O)C(=O)N1)[C@@H](C)O)C(=O)N1CCC[C@H]1C(=O)N[C@@H](CO)C(=O)N[C@@H](CO)C(=O)N[C@H](C(=O)N[C@@H](CC(N)=O)C(=O)N[C@H](C(=O)NCC(=O)N[C@@H](Cc1c[nH]cn1)C(=O)N[C@@H](CC(N)=O)C(=O)N[C@H](C(=O)N[C@@H](Cc1ccc(O)cc1)C(N)=O)[C@@H](C)O)C(C)C)[C@@H](C)O
notes: also called compound 86
B4: N^ε1-[(4S)-4-carboxy-4-[[(4S)-4-carboxy-4-(19-carboxynonadecanoylamino)butanoyl]amino]butanoyl]-[Glu14,Arg17,Pro21,Pro27,Arg34]-h-amylin (peptide)
peptide: K([γGlu-γGlu-C20 diacid])CNTATCATQRLAEFLRHSSPNFGAIPSSTNVGRNTY-NH2
modifications: disulfide 2-7; N-terminus assumed
SMILES: CC[C@H](C)[C@H](NC(=O)[C@H](C)NC(=O)CNC(=O)[C@H](Cc1ccccc1)NC(=O)[C@H](CC(N)=O)NC(=O)[C@@H]1CCCN1C(=O)[C@H](CO)NC(=O)[C@H](CO)NC(=O)[C@H](Cc1c[nH]cn1)NC(=O)[C@H](CCCNC(=N)N)NC(=O)[C@H](CC(C)C)NC(=O)[C@H](Cc1ccccc1)NC(=O)[C@H](CCC(=O)O)NC(=O)[C@H](C)NC(=O)[C@H](CC(C)C)NC(=O)[C@H](CCCNC(=N)N)NC(=O)[C@H](CCC(N)=O)NC(=O)[C@@H](NC(=O)[C@H](C)NC(=O)[C@@H]1CSSC[C@H](NC(=O)[C@@H](N)CCCCNC(=O)CC[C@H](NC(=O)CC[C@H](NC(=O)CCCCCCCCCCCCCCCCCCC(=O)O)C(=O)O)C(=O)O)C(=O)N[C@@H](CC(N)=O)C(=O)N[C@@H]([C@@H](C)O)C(=O)N[C@@H](C)C(=O)N[C@@H]([C@@H](C)O)C(=O)N1)[C@@H](C)O)C(=O)N1CCC[C@H]1C(=O)N[C@@H](CO)C(=O)N[C@@H](CO)C(=O)N[C@H](C(=O)N[C@@H](CC(N)=O)C(=O)N[C@H](C(=O)NCC(=O)N[C@@H](CCCNC(=N)N)C(=O)N[C@@H](CC(N)=O)C(=O)N[C@H](C(=O)N[C@@H](Cc1ccc(O)cc1)C(N)=O)[C@@H](C)O)C(C)C)[C@@H](C)O
notes: also called compound 88
B5: N^ε1-[(4S)-4-carboxy-4-(19-carboxynonadecanoylamino)butanoyl]-[His14,Arg17,Pro21,Pro27,His34]-h-amylin (peptide)
peptide: K([γGlu-C20 diacid])CNTATCATQRLAHFLRHSSPNFGAIPSSTNVGHNTY-NH2
modifications: disulfide 2-7; N-terminus assumed
SMILES: CC[C@H](C)[C@H](NC(=O)[C@H](C)NC(=O)CNC(=O)[C@H](Cc1ccccc1)NC(=O)[C@H](CC(N)=O)NC(=O)[C@@H]1CCCN1C(=O)[C@H](CO)NC(=O)[C@H](CO)NC(=O)[C@H](Cc1c[nH]cn1)NC(=O)[C@H](CCCNC(=N)N)NC(=O)[C@H](CC(C)C)NC(=O)[C@H](Cc1ccccc1)NC(=O)[C@H](Cc1c[nH]cn1)NC(=O)[C@H](C)NC(=O)[C@H](CC(C)C)NC(=O)[C@H](CCCNC(=N)N)NC(=O)[C@H](CCC(N)=O)NC(=O)[C@@H](NC(=O)[C@H](C)NC(=O)[C@@H]1CSSC[C@H](NC(=O)[C@@H](N)CCCCNC(=O)CC[C@H](NC(=O)CCCCCCCCCCCCCCCCCCC(=O)O)C(=O)O)C(=O)N[C@@H](CC(N)=O)C(=O)N[C@@H]([C@@H](C)O)C(=O)N[C@@H](C)C(=O)N[C@@H]([C@@H](C)O)C(=O)N1)[C@@H](C)O)C(=O)N1CCC[C@H]1C(=O)N[C@@H](CO)C(=O)N[C@@H](CO)C(=O)N[C@H](C(=O)N[C@@H](CC(N)=O)C(=O)N[C@H](C(=O)NCC(=O)N[C@@H](Cc1c[nH]cn1)C(=O)N[C@@H](CC(N)=O)C(=O)N[C@H](C(=O)N[C@@H](Cc1ccc(O)cc1)C(N)=O)[C@@H](C)O)C(C)C)[C@@H](C)O
notes: also called compound 81
B6: N^ε1-[(4S)-4-carboxy-4-(19-carboxynonadecanoylamino)butanoyl]-[His14,Arg17,Pro21,Pro27,His35]-h-amylin (peptide)
peptide: K([γGlu-C20 diacid])CNTATCATQRLAHFLRHSSPNFGAIPSSTNVGSHTY-NH2
modifications: disulfide 2-7; N-terminus assumed
SMILES: CC[C@H](C)[C@H](NC(=O)[C@H](C)NC(=O)CNC(=O)[C@H](Cc1ccccc1)NC(=O)[C@H](CC(N)=O)NC(=O)[C@@H]1CCCN1C(=O)[C@H](CO)NC(=O)[C@H](CO)NC(=O)[C@H](Cc1c[nH]cn1)NC(=O)[C@H](CCCNC(=N)N)NC(=O)[C@H](CC(C)C)NC(=O)[C@H](Cc1ccccc1)NC(=O)[C@H](Cc1c[nH]cn1)NC(=O)[C@H](C)NC(=O)[C@H](CC(C)C)NC(=O)[C@H](CCCNC(=N)N)NC(=O)[C@H](CCC(N)=O)NC(=O)[C@@H](NC(=O)[C@H](C)NC(=O)[C@@H]1CSSC[C@H](NC(=O)[C@@H](N)CCCCNC(=O)CC[C@H](NC(=O)CCCCCCCCCCCCCCCCCCC(=O)O)C(=O)O)C(=O)N[C@@H](CC(N)=O)C(=O)N[C@@H]([C@@H](C)O)C(=O)N[C@@H](C)C(=O)N[C@@H]([C@@H](C)O)C(=O)N1)[C@@H](C)O)C(=O)N1CCC[C@H]1C(=O)N[C@@H](CO)C(=O)N[C@@H](CO)C(=O)N[C@H](C(=O)N[C@@H](CC(N)=O)C(=O)N[C@H](C(=O)NCC(=O)N[C@@H](CO)C(=O)N[C@@H](Cc1c[nH]cn1)C(=O)N[C@H](C(=O)N[C@@H](Cc1ccc(O)cc1)C(N)=O)[C@@H](C)O)C(C)C)[C@@H](C)O
notes: also called compound 66

molecular target: T1, human calcitonin receptor (human, UniProt P30988 25-474); assay: cell-based or functional assay
T1 sequence (looked up): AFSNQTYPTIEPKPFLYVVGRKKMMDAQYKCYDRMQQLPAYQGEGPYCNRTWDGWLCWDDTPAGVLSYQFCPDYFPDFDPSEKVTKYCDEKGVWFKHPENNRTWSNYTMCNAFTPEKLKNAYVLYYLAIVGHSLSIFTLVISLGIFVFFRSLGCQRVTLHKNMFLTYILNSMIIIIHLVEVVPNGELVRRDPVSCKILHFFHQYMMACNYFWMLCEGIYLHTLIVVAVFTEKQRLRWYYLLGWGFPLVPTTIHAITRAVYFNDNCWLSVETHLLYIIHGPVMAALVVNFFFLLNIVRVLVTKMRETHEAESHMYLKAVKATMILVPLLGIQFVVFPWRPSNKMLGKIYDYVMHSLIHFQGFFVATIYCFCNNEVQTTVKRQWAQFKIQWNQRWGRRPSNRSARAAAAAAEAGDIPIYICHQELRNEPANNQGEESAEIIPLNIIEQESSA

Compared with B1, B2 is 7.2-fold lower in “hCTR funct. EC50” value: 3.88 nM for the first, 0.539 nM for the second.

First: B3
Second: B4
The “hCTR funct. EC50” value of the first is 2.9-fold higher: 19.2 nM for the first, 6.55 nM for the second.

Going from B5 to B6, the “hCTR funct. EC50” value falls from 1.73 nM to 0.542 nM (3.2-fold).

— US20140087995A1 (published 2014)
